# In PMC3812847:
# T1: C-RapL (purified domain) (human)
# T1 sequence (Q8WWW0 whole entry, looked up): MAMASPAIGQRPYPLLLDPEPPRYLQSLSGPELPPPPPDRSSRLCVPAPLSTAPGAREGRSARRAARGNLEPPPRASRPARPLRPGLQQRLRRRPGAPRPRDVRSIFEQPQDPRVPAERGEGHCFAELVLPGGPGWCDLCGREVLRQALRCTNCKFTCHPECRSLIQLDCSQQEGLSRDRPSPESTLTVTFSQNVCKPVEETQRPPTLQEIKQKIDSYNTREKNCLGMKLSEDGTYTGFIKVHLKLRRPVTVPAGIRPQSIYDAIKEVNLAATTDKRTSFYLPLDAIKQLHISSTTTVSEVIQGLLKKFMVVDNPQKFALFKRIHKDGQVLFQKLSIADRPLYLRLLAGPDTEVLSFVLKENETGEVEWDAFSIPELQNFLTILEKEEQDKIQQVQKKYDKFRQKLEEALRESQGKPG
# Target: T1, C-RapL (purified domain) (human)
# Experiment: ITC
binder,measurement,value
N-SKAP1 (purified domain) (domain or fragment) MQAAALPEEIRWLLEDAEEFLAEGLRNENLSAVARDHRDHILRGFQQIKARYYWDFQPQGGDIGQDSSDDNHSGTLGLSLTSDAPFLSDYQDEGMEDIVKGAQE,Kd,600 nM
same,dH,-2.3 kcal/mol
same,stoichiometry N,0.85
